Results from article doi:10.1101/2025.05.14.654016.

Target: LSSmGFP-PRL-3.C104D (human) (UniProt O75365)
Assay: FRET or BRET; in vitro FRET, competition: LSSmGFP-PRL3.C104D (250 nM) preincubated with competitor or test compound 30 min at room temperature, then HA-CBS-mScarlet3 (500 nM); 100 mM NaCl, 20 mM HEPES pH 7.5, 5% glycerol; normalised to DMSO control

Sequence of LSSmGFP-PRL-3.C104D (human) (O75365 whole entry C104D): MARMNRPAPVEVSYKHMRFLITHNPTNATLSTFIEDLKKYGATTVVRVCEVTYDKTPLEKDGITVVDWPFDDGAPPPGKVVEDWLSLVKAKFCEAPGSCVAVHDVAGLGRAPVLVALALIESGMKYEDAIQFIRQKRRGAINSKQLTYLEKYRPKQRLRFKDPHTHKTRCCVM

percent reduction of the FRET signal at 50 μM: 40%
Substance: PSM-001 (cyclic peptide, PRL substrate mimic) (from UniProt Q8NE01 416-432)
